Legend:
[1] = tested on: HeLa Kyoto; assay: solubility change mitosis vs G1/S (difference of NP-40 vs SDS log2 ratios) (log2 ratio difference); higher = more soluble in mitosis
[2] = tested on: HeLa Kyoto; assay: solubility in G1/S (NP-40 vs SDS abundance) (log2 ratio); higher = more soluble; settings: cell cycle stage: G1/S
[3] = tested on: HeLa Kyoto; assay: melting temperature (median over replicates), in situ; higher = more thermally stable
[4] = tested on: HeLa Kyoto; assay: thermal stability score vs G1/S (z-score of summed log2 fold changes over temperatures); higher = more thermally stable than in G1/S
[5] = cell cycle stage: early G1 (4.5 h after nocodazole release)
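For melting temperature (median over replicates), in situ in this document: HeLa Kyoto cells synchronized by double thymidine or nocodazole block, proteins quantified by TMT10plex mass spectrometry, three independent biological replicates.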
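For solubility change mitosis vs G1/S (difference of NP-40 vs SDS log2 ratios) in this document: synchronized HeLa Kyoto cells (double thymidine block for G1/S, nocodazole release for mitosis), protein amounts in NP-40 versus SDS lysates quantified by mass spectrometry, three biological replicates.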
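For solubility in G1/S (NP-40 vs SDS abundance) in this document: HeLa Kyoto cells arrested at G1/S by double thymidine block, proteins quantified by TMT10plex mass spectrometry in mild NP-40 versus SDS extracts, three biological replicates.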
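For thermal stability score vs G1/S (z-score of summed log2 fold changes over temperatures) in this document: synchronized HeLa Kyoto cells, proteins quantified by TMT10plex mass spectrometry, three biological replicates, mitosis taken 0.5 h after nocodazole release, G1/S directly after double thymidine block.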

Row | Sequence | solubility change mitosis (log2) [1] | solubility in G1/S (log2) [2] | melting temperature ([3]; cell cycle stage: G1/S) | melting temperature ([3]; cell cycle stage: mitosis) | thermal stability score [4, 5] | thermal stability score ([4]; cell cycle stage: mitosis)
1 | MADDAGLETPLCSEQFGSGEARGCRAAADGSLQWEVGGWRWWGLSRAFTVKPEGRDAGEVGASGAPSPPLSGLQAVFLPQGFPDSVSPDYLPYQLWDSVQAFASSLSGSLATQAVLLGIGVGNAKATVSAATATWLVKDSTGMLGRIVFAWWKGSKLDCNAKQWRLFADILNDVAMFLEIMAPVYPICFTMTVSTSNLAKCIVSVAGGATRAALTVHQARRNNMADVSAKDSSQETLVNLAGLLVSLLMLPLVSGCPGFSLGCFFFLTALHIYANYRAVRALVMETLNEGRLRLVLKHYLQRGEVLDPTAANRMEPLWTGFWPAPSLSLGVPLHRLVSSVFELQQLVEGHQESYLLCWDQSQNQVQVVLNQKAGPKTILRAATHGLMLGALQGDGPLPAELEELRNRVRAGPKKESWVVVKETHEVLDMLFPKFLKGLQDAGWKTEKHQLEVDEWRATWLLSPEKKVL [C16ORF58] | -0.031 | -0.224 | 53.7 °C | 53.8 °C | -0.365 | 0.0232
2 | MADEAALALQPGGSPSAAGADREAASSPAGEPLRKRPRRDGPGLERSPGEPGGAAPEREVPAAARGCPGAAAAALWREAEAEAAAAGGEQEAQATAAAGEGDNGPGLQGPSREPPLADNLYDEDDDDEGEEEEEAAAAAIGYRDNLLFGDEIITNGFHSCESDEEDRASHASSSDWTPRPRIGPYTFVQQHLMIGTDPRTILKDLLPETIPPPELDDMTLWQIVINILSEPPKRKKRKDINTIEDAVKLLQECKKIIVLTGAGVSVSCGIPDFRSRDGIYARLAVDFPDLPDPQAMFDIEYFRKDPRPFFKFAKEIYPGQFQPSLCHKFIALSDKEGKLLRNYTQNIDTLEQVAGIQRIIQCHGSFATASCLICKYKVDCEAVRGDIFNQVVPRCPRCPADEPLAIMKPEIVFFGENLPEQFHRAMKYDKDEVDLLIVIGSSLKVRPVALIPSSIPHEVPQILINREPLPHLHFDVELLGDCDVIINELCHRLGGEYAKLCCNPVKLSEITEKPPRTQKELAYLSELPPTPLHVSEDSSSPERTSPPDSSVIVTLLDQAAKSNDDLDVSESKGCMEEKPQEVQTSRNVESIAEQMENPDLKNVGSSTGEKNERTSVAGTVRKCWPNRVAKEQISRRLDGNQYLFLPPNRYIFHGAEVYSDSEDDVLSSSSCGSNSDSGTCQSPSLEEPMEDESEIEEFYNGLEDEPDVPERAGGAGFGTDGDDQEAINEAISVKQEVTDMNYPSNKS [SIRT1] | -0.0419 | -0.0978 | 50.2 °C | 50.1 °C | 0.328 | 2.02
3 | MADEDLIFRLEGVDGGQSPRAGHDGDSDGDSDDEEGYFICPITDDPSSNQNVNSKVNKYYSNLTKSERYSSSGSPANSFHFKEAWKHAIQKAKHMPDPWAEFHLEDIATERATRHRYNAVTGEWLDDEVLIKMASQPFGRGAMRECFRTKKLSNFLHAQQWKGASNYVAKRYIEPVDRDVYFEDVRLQMEAKLWGEEYNRHKPPKQVDIMQMCIIELKDRPGKPLFHLEHYIEGKYIKYNSNSGFVRDDNIRLTPQAFSHFTFERSGHQLIVVDIQGVGDLYTDPQIHTETGTDFGDGNLGVRGMALFFYSHACNRICESMGLAPFDLSPRERDAVNQNTKLLQSAKTILRGTEEKCGSPQVRTLSGSRPPLLRPLSENSGDENMSDVTFDSLPSSPSSATPHSQKLDHLHWPVFSDLDNMASRDHDHLDNHRESENSGDSGYPSEKRGELDDPEPREHGHSYSNRKYESDEDSLGSSGRVCVEKWNLLNSSRLHLPRASAVALEVQRLNALDLEKKIGKSILGKVHLAMVRYHEGGRFCEKGEEWDQESAVFHLEHAANLGELEAIVGLGLMYSQLPHHILADVSLKETEENKTKGFDYLLKAAEAGDRQSMILVARAFDSGQNLSPDRCQDWLEALHWYNTALEMTDCDEGGEYDGMQDEPRYMMLAREAEMLFTGGYGLEKDPQRSGDLYTQAAEAAMEAMKGRLANQYYQKAEEAWAQMEE [EEF2K] | -0.158 | 0.0328 | 47.7 °C | 48.4 °C | 0.84 | 1.21
4 | MADEIAKAQVARPGGDTIFGKIIRKEIPAKIIFEDDRCLAFHDISPQAPTHFLVIPKKHISQISVAEDDDESLLGHLMIVGKKCAADLGLNKGYRMVVNEGSDGGQSVYHVHLHVLGGRQMHWPPG [HINT1] | 0.17 | 0.25 | 56.4 °C | 56 °C | -5.39 | -4.12
5 | MADESETAVKPPAPPLPQMMEGNGNGHEHCSDCENEEDNSYNRGGLSPANDTGAKKKKKKQKKKKEKGSETDSAQDQPVKMNSLPAERIQEIQKAIELFSVGQGPAKTMEEASKRSYQFWDTQPVPKLGEVVNTHGPVEPDKDNIRQEPYTLPQGFTWDALDLGDRGVLKELYTLLNENYVEDDDNMFRFDYSPEFLLWALRPPGWLPQWHCGVRVVSSRKLVGFISAIPANIHIYDTEKKMVEINFLCVHKKLRSKRVAPVLIREITRRVHLEGIFQAVYTAGVVLPKPVGTCRYWHRSLNPRKLIEVKFSHLSRNMTMQRTMKLYRLPETPKTAGLRPMETKDIPVVHQLLTRYLKQFHLTPVMSQEEVEHWFYPQENIIDTFVVENANGEVTDFLSFYTLPSTIMNHPTHKSLKAAYSFYNVHTQTPLLDLMSDALVLAKMKGFDVFNALDLMENKTFLEKLKFGIGDGNLQYYLYNWKCPSMGAEKVGLVLQ [NMT1] | 0.1 | -0.131 | 53.9 °C | 53.5 °C | -0.333 | -0.823
